B1: ADD1 (parent)
chain: LRHSFQKQQREKTRWLNSGRGDEA

Variants of: B1
Experiment: protein stability index of a GFP-peptide fusion (GPS, HEK-293T) (PSI 1-6); higher = more stable
Conditions: c terminus: a fixed tail appended
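Further: lentivirally expressed fusions sorted by FACS into six bins by GFP to DsRed ratio, PSI derived from sequencing read proportions per bin multiplied by bin number.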

Compared with LRHSFQKQQREKTQWLNSGRGDEA [R14Q], LRHSFQKQQREKTNWLNSGRGDEA [R14N] is lower in protein stability index: 4.3 for the first, 3.58 for the second.

Compared with LRHSFQKQQREKTTWLNSGRGDEA [R14T], LRHSFQKQQREKTHWLNSGRGDEA [R14H] is higher in protein stability index: 3.15 for the first, 3.98 for the second.

Going from LRHSFQKQQREKTKWLNSGRGDEA [R14K] to LRHSFQKQQREKTDWLNSGRGDEA [R14D], the protein stability index falls from 3.78 to 3.52.

Compared with LRHSFQKQQREKTCWLNSGRGDEA [R14C], LRHSFQKQQREKTLWLNSGRGDEA [R14L] is higher in protein stability index: 2.68 for the first, 3.02 for the second.

Going from LRHSFQKQQREKTGWLNSGRGDEA [R14G] to LRHSFQKQQREKTMWLNSGRGDEA [R14M], the protein stability index falls from 4.03 to 3.42.

Compared with LRHSFQKQQREKTEWLNSGRGDEA [R14E], LRHSFQKQQREKTYWLNSGRGDEA [R14Y] is lower in protein stability index: 4.59 for the first, 2.76 for the second.

Compared with LRHSFQKQQREKTSWLNSGRGDEA [R14S], LRHSFQKQQREKTWWLNSGRGDEA [R14W] is lower in protein stability index: 4.03 for the first, 3.25 for the second.

First: LRHSFQKQQREKTIWLNSGRGDEA [R14I]
Second: LRHSFQKQQREKTAWLNSGRGDEA [R14A]
The protein stability index of the first is lower: 3.02 for the first, 3.58 for the second.

First: LRHSFQKQQREKTFWLNSGRGDEA [R14F]
Second: LRHSFQKQQREKTPWLNSGRGDEA [R14P]
The protein stability index of the first is lower: 3.52 for the first, 3.86 for the second.

First: LRHSFQKQQREKTVWLNSGRGDEA [R14V]
Second: LRHSFQKQQEEKTRWLNSGRGDEA [R10E]
The protein stability index of the first is lower: 3.95 for the first, 4.67 for the second.

First: LRHSFQKQQGEKTRWLNSGRGDEA [R10G]
Second: LRHSFQKQQLEKTRWLNSGRGDEA [R10L]
The protein stability index of the first is lower: 3.72 for the first, 3.82 for the second.

First: LRHSFQKQQKEKTRWLNSGRGDEA [R10K]
Second: LRHSFQKQQCEKTRWLNSGRGDEA [R10C]
The protein stability index of the first is higher: 3.9 for the first, 3.58 for the second.

First: LRHSFQKQQWEKTRWLNSGRGDEA [R10W]
Second: LRHSFQKQQFEKTRWLNSGRGDEA [R10F]
The protein stability index of the first is lower: 2.66 for the first, 3.92 for the second.

Going from LRHSFQKQQQEKTRWLNSGRGDEA [R10Q] to LRHSFQKQQDEKTRWLNSGRGDEA [R10D], the protein stability index falls from 4.44 to 4.23.

First: LRHSFQKQQAEKTRWLNSGRGDEA [R10A]
Second: LRHSFQKQQIEKTRWLNSGRGDEA [R10I]
The protein stability index of the first is higher: 4.17 for the first, 3.65 for the second.

First: LRHSFQKQQNEKTRWLNSGRGDEA [R10N]
Second: LRHSFQKQQVEKTRWLNSGRGDEA [R10V]
The protein stability index of the first is higher: 3.95 for the first, 3.48 for the second.

First: LRHSFQKQQYEKTRWLNSGRGDEA [R10Y]
Second: LRHSFQKQQHEKTRWLNSGRGDEA [R10H]
The protein stability index of the first is lower: 3.64 for the first, 4.13 for the second.

First: LRHSFQKQQSEKTRWLNSGRGDEA [R10S]
Second: LRHSFQKQQTEKTRWLNSGRGDEA [R10T]
The protein stability index of the first is higher: 4.58 for the first, 3.83 for the second.

Compared with LRHSFQKQQPEKTRWLNSGRGDEA [R10P], LRHSFQKQQMEKTRWLNSGRGDEA [R10M] is lower in protein stability index: 3.53 for the first, 3.44 for the second.

Compared with LRHSFYKQQREKTRWLNSGRGDEA [Q6Y], LRHSFWKQQREKTRWLNSGRGDEA [Q6W] is lower in protein stability index: 2.85 for the first, 2.53 for the second.

Compared with LRHSFQKQQREMTRWLNSGRGDEA [K12M], LRHSFQKQQREETRWLNSGRGDEA [K12E] is higher in protein stability index: 3.42 for the first, 4.24 for the second.

First: LRHSFQKQQRERTRWLNSGRGDEA [K12R]
Second: LRHSFQKQQREPTRWLNSGRGDEA [K12P]
The protein stability index of the first is higher: 3.88 for the first, 3.56 for the second.

First: LRHSFQKQQRECTRWLNSGRGDEA [K12C]
Second: LRHSFQKQQREDTRWLNSGRGDEA [K12D]
The protein stability index of the first is lower: 3.79 for the first, 3.96 for the second.

Going from LRHSFQKQQRESTRWLNSGRGDEA [K12S] to LRHSFQKQQREQTRWLNSGRGDEA [K12Q], the protein stability index rises from 3.54 to 3.85.

Going from LRHSFQKQQREFTRWLNSGRGDEA [K12F] to LRHSFQKQQREATRWLNSGRGDEA [K12A], the protein stability index rises from 3.05 to 4.1.

Compared with LRHSFQKQQREYTRWLNSGRGDEA [K12Y], LRHSFQKQQRETTRWLNSGRGDEA [K12T] is higher in protein stability index: 3.48 for the first, 3.57 for the second.

Going from LRHSFQKQQRELTRWLNSGRGDEA [K12L] to LRHSFQKQQREWTRWLNSGRGDEA [K12W], the protein stability index falls from 3.51 to 2.72.

First: LRHSFQKQQREVTRWLNSGRGDEA [K12V]
Second: LRHSFQKQQREGTRWLNSGRGDEA [K12G]
The protein stability index of the first is lower: 3.27 for the first, 4.09 for the second.

Going from LRHSFQKQQRENTRWLNSGRGDEA [K12N] to LRHSFQKQQREHTRWLNSGRGDEA [K12H], the protein stability index falls from 3.73 to 3.58.

First: LRHSFQKQQREITRWLNSGRGDEA [K12I]
Second: LRHSFQKQQREKTRNLNSGRGDEA [W15N]
The protein stability index of the first is lower: 3.46 for the first, 4.54 for the second.

First: LRHSFQKQQREKTRLLNSGRGDEA [W15L]
Second: LRHSFQKQQREKTRKLNSGRGDEA [W15K]
The protein stability index of the first is higher: 4.38 for the first, 4.08 for the second.

Compared with LRHSFQKQQREKTRSLNSGRGDEA [W15S], LRHSFQKQQREKTRRLNSGRGDEA [W15R] is lower in protein stability index: 4.68 for the first, 4.62 for the second.

Compared with LRHSFQKQQREKTRYLNSGRGDEA [W15Y], LRHSFQKQQREKTRMLNSGRGDEA [W15M] is higher in protein stability index: 4.17 for the first, 4.25 for the second.

Going from LRHSFQKQQREKTRPLNSGRGDEA [W15P] to LRHSFQKQQREKTRGLNSGRGDEA [W15G], the protein stability index rises from 4.66 to 4.72.

Going from LRHSFQKQQREKTRALNSGRGDEA [W15A] to LRHSFQKQQREKTRDLNSGRGDEA [W15D], the protein stability index rises from 4.07 to 4.42.

Going from LRHSFQKQQREKTRELNSGRGDEA [W15E] to LRHSFQKQQREKTRVLNSGRGDEA [W15V], the protein stability index falls from 4.81 to 3.97.

First: LRHSFQKQQREKTRCLNSGRGDEA [W15C]
Second: LRHSFQKQQREKTRHLNSGRGDEA [W15H]
The protein stability index of the first is lower: 3.73 for the first, 5.01 for the second.

First: LRHSFQKQQREKTRTLNSGRGDEA [W15T]
Second: LRHSFQKQQREKTRFLNSGRGDEA [W15F]
The protein stability index of the first is higher: 4.65 for the first, 4.05 for the second.

Compared with LRHSFQKQQREKTRILNSGRGDEA [W15I], LRHSFQKQQREKTRQLNSGRGDEA [W15Q] is higher in protein stability index: 4.27 for the first, 4.84 for the second.

Going from LRHSFQKQFREKTRWLNSGRGDEA [Q9F] to LRHSFQKQKREKTRWLNSGRGDEA [Q9K], the protein stability index rises from 2.71 to 3.92.

First: LRHSFQKQTREKTRWLNSGRGDEA [Q9T]
Second: LRHSFQKQHREKTRWLNSGRGDEA [Q9H]
The protein stability index of the first is higher: 3.83 for the first, 3.7 for the second.

First: LRHSFQKQEREKTRWLNSGRGDEA [Q9E]
Second: LRHSFQKQYREKTRWLNSGRGDEA [Q9Y]
The protein stability index of the first is higher: 4.29 for the first, 3.01 for the second.

Going from LRHSFQKQRREKTRWLNSGRGDEA [Q9R] to LRHSFQKQDREKTRWLNSGRGDEA [Q9D], the protein stability index rises from 3.75 to 4.06.

Compared with LRHSFQKQCREKTRWLNSGRGDEA [Q9C], LRHSFQKQAREKTRWLNSGRGDEA [Q9A] is higher in protein stability index: 1.73 for the first, 4.12 for the second.

First: LRHSFQKQLREKTRWLNSGRGDEA [Q9L]
Second: LRHSFQKQGREKTRWLNSGRGDEA [Q9G]
The protein stability index of the first is lower: 3.23 for the first, 4.15 for the second.

Going from LRHSFQKQPREKTRWLNSGRGDEA [Q9P] to LRHSFQKQWREKTRWLNSGRGDEA [Q9W], the protein stability index falls from 3.44 to 2.94.

Compared with LRHSFQKQIREKTRWLNSGRGDEA [Q9I], LRHSFQKQNREKTRWLNSGRGDEA [Q9N] is higher in protein stability index: 3.18 for the first, 3.72 for the second.

— the supplement of paper PMC10567573
